Experimental data as given in PMC7526519 (2020).

Assays:
[1] = biological target: SARS-CoV receptor binding domain (RBD), His-tagged (SARS-CoV, UniProt P59594 306-527); assay: SPR
[2] = biological target: SARS-CoV-2 receptor binding domain (RBD), His-tagged (SARS-CoV-2, UniProt P0DTC2 319-541); assay: SPR

Row | Binder | Kd [1] | Kd [2]
1 | bovine ACE2 ectodomain fused with mouse Fc (Fc fusion) QSTTEEQAKTFLEKFNHEAEDLSYQSSLASWNYNTNITDENVQKMNEARAKWSAFYEEQSRMAKTYSLEEIQNLTLKRQLKALQHSGTSALSAEKSKRLNTILNKMSTIYSTGKVLDPNTQECLALEPGLDDIMENSRDYNRRLWAWEGWRAEVGKQLRPLYEEYVVLENEMARANNYEDYGDYWRGDYEVTGAGDYDYSRDQLMKDVERTFAEIKPLYEQLHAYVRAKLMHTYPSYISPTGCLPAHLLGDMWGRFWTNLYSLTVPFEHKPSIDVTEKMENQSWDAERIFKEAEKFFVSISLPYMTQGFWDNSMLTEPGDGRKVVCHPTAWDLGKGDFRIKMCTKVTMDDFLTAHHEMGHIQYDMAYAAQPYLLRNGANEGFHEAVGEIMSLSAATPHYLKALGLLAPDFHEDNETEINFLLKQALTIVGTLPFTYMLEKWRWMVFKGEIPKQQWMEKWWEMKREIVGVVEPLPHDETYCDPACLFHVAEDYSFIRYYTRTIYQFQFHEALCKTAKHEGALFKCDISNSTEAGQRLLQMLRLGKSEPWTLALENIVGIKTMDVKPLLNYFEPLFTWLKEQNRNSFVGWSTEWTPYSDQSIKVRISLKSALGENAYEWNDNEMYLFQSSVAYAMRKYFSEARNETVLFGEDNVWVSDKKPRISFKFFVTSPNNVSDIIPRTEVENAIRLSRDRINDVFQLDDNSLEFLGIQPTLGPPYEPPVT | 89.8 nM | 73.7 nM
2 | goat ACE2 ectodomain fused with mouse Fc (Fc fusion) QSTTEEQAKTFLEKFNHEAEDLSYQSSLASWNYNTNITDENVQKMNEARAKWSAFYEEQSRMARTYSLEEIQNLTLKRQLKALQHSGTSVLSAEKSKRLNMILNKMSTIYSTGKVLDPNTQECLALEPGLDDIMENSRDYNRRLWAWEGWRAEVGKQLRPLYEEYVVLENEMARANNYEDYGDYWRGDYEVTGAGDYDYSRDQLMKDVERTFAEIKPLYEQLHAYVRAKLMNTYPSYISPTGCLPAHLLGDMWGRFWTNLYSLTVPFEHKPSIDVTEKMKNQSWDAERIFKEAEKFFVSIGLPYMTQGFWNNSMLTEPGDGRKVVCHPTAWDLGKGDFRIKMCTKVTMDDFLTAHHEMGHIQYDMAYATQPYLLRNGANEGFHEAVGEIMSLSAATPHYLKALGLLAPDFYEDNETEINFLLKQALTIVGTLPFTYMLEKWRWMVFKGEIPKQQWMEKWWEMKREIVGVVEPLPHDETYCDPACLFHVAEDYSFIRYYTRTIYQFQFHEALCKTAKHEGALFKCDISNSTEAGQRLLQMLRLGKSEPWTLALENIVGIKTMDVKPLLNYFEPLFTWLKEQNRNSFVGWSTEWTPYSDQSIKVRISLKSALGENAYEWNDNEMYLFRSSVAYAMRKYFLEDRNETIPFGEENVWVSDKKPRISFKFFVTSPNNVSDIIPRTEVENAIRLCRDRINDAFQLDDNSLEFLGIQPTLRPPYEPPVT | 308 nM | 157 nM
3 | sheep ACE2 ectodomain fused with mouse Fc (Fc fusion) QSTTEGQAKTFLEKFNHEAEDLSYQSSLASWNYNTNITDENVQKMNEARAKWSAFYEEQSRMARTYSLEEIQNLTLKRQLKALQHSGTSVLSAEKSKRLNTILNKMSTIYSTGKVLDPNTQECLALEPGLDDIMENSRDYNRRLWAWEGWRAEVGKQLRPLYEEYVVLENEMARANNYEDYGDYWRGDYEVTGAGDYDYSRDQLMKDVERTFEEIKPLYEQLHAYVRAKLMDTYPSYISPTGCLPAHLLGDMWGRFWTNLYSLTVPFEHKPSIDVTEKMKNQSWDAERIFKEAEKFFVSIGLPYMTQGFWDNSMLTEPGDGRKVVCHPTAWDLGKGDFRIKMCTKVTMDDFLTAHHEMGHIQYDMAYATQPYLLRNGANEGFHEAVGEIMSLSAATPHYLKALGLLAPDFYEDNETEINFLLKQALTIVGTLPFTYMLEKWRWMVFKGEIPKQQWMEKWWEMKREIVGVVEPLPHDETYCDPACLFHVAEDYSFIRYYTRTIYQFQFHEALCKTAKHEGALFKCDISNSTEAGQRLLQMLRLGKSEPWTLALENIVGIKTMDVKPLLNYFEPLFTWLKEQNRNSFVGWSTEWTPYSDQSIKVRISLKSALGENAYEWNDNEMYLFRSSVAYAMRKYFLKERNETIPFGEENVWVSDKKPRISFKFFVTSPNNVSDIIPRTEVENAIRLCRDRINDAFQLDDNSLEFLGIQPTLRPPYEPPVT | 157 nM | 137 nM
4 | rabbit ACE2 ectodomain fused with mouse Fc (Fc fusion) QSTIEELAKTFLEKFNQEAEDLSYQSALASWDYNTNITEENVQKMNDAEAKWSAFYEEQSKLAKTYPSQEVQNLTVKRQLQALQQSGSSALSADKSKQLNTILSTMSTIYSTGKVCNQSNPQECFLLEPGLDEIMAKSTDYNERLWAWEGWRSVVGKQLRPLYEEYVVLKNEMARANNYEDYGDYWRADYEAEGADGYDYSRSQLIDDVERTFSEIKPLYEQLHAFVRTKLMDAYPSRISPTGCLPAHLLGDMWGRFWTNLYSLTVPFGQKPNIDVTDTMVNQGWDAERIFKEAEKFFVSVGLPSMTQGFWENSMLTEPGDGRKVVCHPTAWDLGKGDFRIKMCTKVTMDNFLTAHHEMGHIQYDMAYATQPFLLRNGANEGFHEAVGEIMSLSAATPEHLKSIGLLPYDFHEDNETEINFLLKQALTIVGTLPFTYMLEKWRWMVFKGEIPKEQWMQKWWEMKREIVGVVEPMPHDETYCDPAALFHVANDYSFIRYYTRTIYQFQFQEALCQAAQHEGPLHKCDISNSTEAGQKLLNMLRLGRSEPWTLALENVVGAKNMDVRPLLNYFEPLFTWLKEQNRNSFVGWSTEWTPYADQSIKVRISLKTALGDQAYEWNDSEMYLFRSSVAYAMRKYFSEVKNQTILFGEEDVRVSDLKPRISFNFFVTAPNNVNDIIPRNEVEEAISMSRSRINDIFRLDDNSLEFVGIQPTLEPPYESPVP | 74.8 nM | 76.2 nM
5 | monkey ACE2 ectodomain fused with mouse Fc (Fc fusion) QSTIEEQAKTFLDKFNHEAEDLFYQSSLASWNYNTNITEENVQNMNNAGEKWSAFLKEQSTLAQMYPLQEIQNLTVKLQLQALQQNGSSVLSEDKSKRLNTILNTMSTIYSTGKVCNPNNPQECLLLDPGLNEIMEKSLDYNERLWAWEGWRSEVGKQLRPLYEEYVVLKNEMARANHYKDYGDYWRGNYEVNGVDGYDYNRDQLIEDVERTFEEIKPLYEHLHAYVRAKLMNAYPSYISPTGCLPAHLLGDMWGRFWTNLYSLTVPFGQKPNIDVTDAMVNQAWNAQRIFKEAEKFFVSVGLPNMTQGFWENSMLTDPGNVQKVVCHPTAWDLGKGDFRIIMCTKVTMDDFLTAHHEMGHIQYDMAYAAQPFLLRNGANEGFHEAVGEIMSLSAATPKHLKSIGLLSPDFQEDNETEINFLLKQALTIVGTLPFTYMLEKWRWMVFKGEIPKDQWMKKWWEMKREIVGVVEPVPHDETYCDPASLFHVSNDYSFIRYYTRTLYQFQFQEALCQAAKHEGPLHKCDISNSTEAGQKLLNMLKLGKSEPWTLALENVVGAKNMNVRPLLNYFEPLFTWLKDQNKNSFVGWSTDWSPYADQSIKVRISLKSALGDKAYEWNDNEMYLFRSSVAYAMRTYFLEIKHQTILFGEEDVRVADLKPRISFNFYVTAPKNVSDIIPRTEVEEAIRISRSRINDAFRLNDNSLEFLGIQTTLAPPYQSPVT | 69.1 nM | 21.7 nM
6 | pig ACE2 ectodomain fused with mouse Fc (Fc fusion) QSTTEELAKTFLEKFNLEAEDLAYQSSLASWNYNTNITDENIQKMNDARAKWSAFYEEQSRIAKTYPLDEIQTLILKRQLQALQQSGTSGLSADKSKRLNTILNTMSTIYSSGKVLDPNNPQECLVLEPGLDEIMENSKDYSRRLWAWESWRAEVGKQLRPLYEEYVVLENEMARANNYEDYGDYWRGDYEVTGTGDYDYSRNQLMEDVERTFAEIKPLYEHLHAYVRAKLMDAYPSRISPTGCLPAHLLGDMWGRFWTNLYPLTVPFGEKPSIDVTEAMVNQSWDAIRIFEEAEKFFVSIGLPNMTQGFWNNSMLTEPGDGRKVVCHPTAWDLGKGDFRIKMCTKVTMDDFLTAHHEMGHIQYDMAYAIQPYLLRNGANEGFHEAVGEIMSLSAATPHYLKALGLLPPDFYEDSETEINFLLKQALTIVGTLPFTYMLEKWRWMVFKGEIPKEQWMQKWWEMKREIVGVVEPLPHDETYCDPACLFHVAEDYSFIRYYTRTIYQFQFHEALCRTAKHEGPLYKCDISNSTEAGQKLLQMLSLGKSEPWTLALENIVGVKTMDVKPLLSYFEPLLTWLKAQNGNSSVGWNTDWTPYADQSIKVRISLKSALGKEAYEWNDNEMYLFRSSIAYAMRNYFSSAKNETIPFGAEDVWVSDLKPRISFNFFVTSPANMSDIIPRSDVEKAISMSRSRINDAFRLDDNTLEFLGIQPTLGPPDEPPVT | 35.8 nM | 47.6 nM
7 | raccoon dog ACE2 ectodomain fused with mouse Fc (Fc fusion) QSTEDLVNTFLEKFNYEAEELSYQSSLASWNYNTNITDENLQKMNNAGAKWSAFYEEQSKLAKTYPLEEIQDSTVKRQLRALQHSGSSVLSADKNQRLNTILNSMSTIYSTGKACNPSNPQECLLLEPGLDDIMENSKDYNERLWAWEGWRSEVGKQLRPLYEEYVALKNEMARANNYEDYGDYWRGDYEEEWENGYNYSRNQLIDDVEHTFTQIMPLYQHLHAYVRTKLMDTYPSYISPTGCLPAHLLGDMWGRFWTNLYPLTVPFGQKPNIDVTNAMVNQSWDARKIFKEAEKFFVSVGLPNMTQGFWENSMLTEPSDSWKVVCHPTAWDLGRGDFRIKMCTKVTMDDFLTAHHEMGHIQYDMAYAAQPFLLRNGANEGFHEAVGEIMSLSAATPNHLKNIGLLPPSFFEDSETEINFLLKQALTIVGTLPFTYMLEKWRWMVFKGEIPKDQWMKTWWEMKRNIVGVVEPVPHDETYCDPASLFHVANDYSFIRYYTRTIYQFQFQEALCQIAKHEGPLHKCDISNSSEAGQKLLEMLKLGKSKPWTYALEIVVGAKNMDVRPLLNYFEPLFTWLKEQNRNSFVGWNTDWSPYADQSIKVRISLKSALGEKAYEWNNNEMYLFRSSIAYAMRQYFSEVKNQTIPFVEDNVWVSDLKPRISFNFFVTSPGNVSDIIPRTEVEEAIRMYRSRINDVFRLDDNSLEFLGIQPTLGPPYEPPVT | 179 nM | 96.4 nM
